Results as given in patent US11266642B2, “Small molecule inhibitors of HLA-DR3 binding for treating autoimmune thyroiditis” (ICAHN SCHOOL OF MEDICINE AT MOUNT SINAI, priority 2015, dated 2022).
No end group written: not given here. *: point of attachment. Biotin = O=C1N[C@H]2[C@H](CS[C@H]2CCCCC(=O)*)N1

Molecular target: T1, HLA-DR3 on VAVY cells (HLA-DRβ1-Arg74 positive) (Homo sapiens, UniProt P01903+P01911, A100K/A102G/A103R/A169T/F55Y/I96L/K41T/L162R/M171V/P40S/Q125H/Q178H/Q39Y/R42S/S66N/T106N/T262R/W38E/Y61H)
T1 construct: VAVY B-cell line that is homozygous for DR3 (confirmed to contain DRβ1-Arg74); host or cells: VAVY B-cell line
T1 sequence (P01903 26-254, other chains not shown): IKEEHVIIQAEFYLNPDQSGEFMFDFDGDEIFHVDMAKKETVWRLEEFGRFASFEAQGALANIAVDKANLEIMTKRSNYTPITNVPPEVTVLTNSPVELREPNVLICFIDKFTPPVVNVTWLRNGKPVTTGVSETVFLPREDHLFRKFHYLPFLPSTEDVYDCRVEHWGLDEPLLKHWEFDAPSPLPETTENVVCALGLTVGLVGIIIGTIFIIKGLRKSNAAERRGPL
Assay: Tg.2098 peptide binding to VAVY cells, flow cytometry
Assay type: cell-based
Settings: incubated without Ia (40% Captisol alone); biotinylated peptide
Protocol: VAVY cells (European Collection of Cell Cultures) were cultured in RPMI (ATCC, Manassas, Va.) supplied with 10% FBS (Sigma-Aldrich, St. Louis, Mo.), 1% Penicillin-Streptomycin (Corning, N.Y.), 2 mM glutamine (Corning, N.Y.) and […] ciprofloxacin hydrochloride (Hospira, Lake Forest, Ill.). Cells were grown at 37° C., 5% CO2 and passaged 1-2 times a week. Cells expressing DR2 (National Development and Research Institutes, Inc) were cultured using the same conditions as VAVY cells. N-terminal biotinylated peptide Tg.2098 was used to test for binding to VAVY cells which express HLA-DR3 on their surface (HLA-DRβ1-Arg74 positive). APC Streptavidin (BD Biosciences, Franklin Lakes, N.J.) was used to detect the biotinylated peptides. A scrambled peptide of Tg.2098 (scr2098) was used as a negative control. VAVY cells were seeded at 2.5×10^6 cells/mL in a 24-well plate (BD Biosciences) and pre-incubated for 7 hours with 0.025 mM of compound Ia or 40% Captisol (Ligand Pharmaceuticals, Inc, La Jolla, Calif.) [the vehicle used to dissolve test compound in this experiment], before 0.5 μM Tg.2098 was added. After 24 h incubation, cells were stained with PE mouse anti-human HLA-DR (BD Biosciences) and APC Streptavidin to detect binding of the peptide to VAVY cells and the inhibitory effect of Compound Ia. Inhibition was analyzed by flow cytometry. As a negative control, cells expressing HLA-DR2 were pre-incubated with example Ia or 40% Captisol, before biotinylated myelin basic protein (MBP) 87-99 (known binder to HLA-DR2) was added and incubated for 24 hours. HLA-DR2 cells were stained with PE mouse anti-human HLA-DR and APC Streptavidin to detect binding of biotinylated MBP87-99 to DR2 expressing cells and to assess the inhibitory effect of compound Ia on peptide binding. To confirm the ELISA results we performed binding inhibition studies using the VAVY B-cell line that is homozygous for DR3 (confirmed to contain DRβ1-Arg74). […]

Sequence	binding of peptide to HLA-DR3-positive VAVY cells
HDLFSRIDSSVVVVP [scr.2098]	2.1%
LSSVVVDPSIRHFDV (Biotin-LSSVVVDPSIRHFDV) [Tg.2098]	42.7%
